Assay results from patent WO2021190480A1 (dated 2021).

Molecular target: T1, His-tagged human TROP-2 protein (TROP-2-His), Sino Biological cat# 10428-H08H (human, UniProt P09758 27-274)
T1 construct: also called TROP-2His protein; human TROP-2His antigen; not shown: His tag
T1 sequence (looked up): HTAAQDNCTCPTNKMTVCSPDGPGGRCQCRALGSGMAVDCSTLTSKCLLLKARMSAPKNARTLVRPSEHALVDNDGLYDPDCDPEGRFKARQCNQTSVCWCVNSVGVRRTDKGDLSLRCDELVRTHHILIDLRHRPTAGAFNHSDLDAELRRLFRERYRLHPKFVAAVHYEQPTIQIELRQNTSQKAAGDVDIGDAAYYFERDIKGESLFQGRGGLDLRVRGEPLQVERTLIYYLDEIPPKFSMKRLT
Test: indirect ELISA, TROP-2-His coated at 1 ug/ml

B1: murine monoclonal antibody M1 (antibody, V domains shown)
VH: QVQLQQPGAELVRPGASVKLSCRASGYTFTNYWMNWVKQRPEQGLEWIGRIDPNDSETHYNQKFKDRAILTVDKASNTAYMQLSGLTSEDSAVHYCARSGFGSTYWFFDVWGAGTTVTVSS
VL: DIVMTQSHKFMSTSVGDRVSITCKASQDVSTAVAWYQQKPGQSPKLLIYSASYRYTGVPDRFAGSGYGTDFTFTISSVQTEDLTVYHCQQHYSTPLTFGPGTRLELK
- EC50: 0.56 nM
